# Experimental data published in the nanobody polyreactivity screen of Harvey et al. (2022).
# Assay: yeast display, Sf9 membrane polyspecificity reagent, FACS + sequencing; frameworks hold sequencing errors
# Outline: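 Genes from sorted yeast were amplified by colony PCR, read by MiSeq 2 × 250 sequencing and filtered on CDR length. These cells carried a synthetic nanobody library in Saccharomyces cerevisiae BJ5465 and were sorted by FACS into low and high (top ~1%) gates on anti-HA and streptavidin fluorescence. Polyreactivity is labelled according to the gate of origin.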
row,Sequence,polyreactivity (PSR sort gate)
1,QVQLVESGGGLVQAGGSLRLSCAASGSTFAANAMGWYRPAPGKERELDAAITSSGGSTYYADSVKGRFTISRDNAKNTVYLQMISLKPEDTAVYYCNKDIERYVRIYDSWGQGTQVTVSS,low polyreactivity
2,QVQLVESGGGLVQAGGSLRLSCAASGSTFAANAMGWYRQAPGKERELVAALTRSGGSTYYADSVKGRFTISRDNAKNTVYLQMNSLKPEDTAVYYCASKYHTRGVQHGYWGQGTQVTVSS,low polyreactivity
3,QVQLVESGGGLVQAGGSLRLSCAASGSTFAANTMGWYRQAPGKERELVAAITVRGGSTYYADSVKGRFTISRDNAKNTVYLQMNSLKPEDTAGYYGAAERPPYGYLVVGYVSTQYYYWGQGTQVTVSS,low polyreactivity
4,QVQLVESGGGLVQAGGSLRLSCAASGSTFAANTMGWYRQAPGKEWELVAAITVRGGSTYYADSVKGRFTISRDNAKTTVYLQMNSLKPEDTAVYYCAAERPPYGYLVVGYVSTQYYYWGQGTQVTVSS,low polyreactivity
5,QVQLVESGGGLVQAGGSLRLSCAASGSTFAAYAAMGWYRQAPGKERELVAAISWNGGSTFYADSVKGRFTISRDNAKNTVYLQMNSLKPEDTAVYYCAVEYYWTLDFTFTFPLSYYWGQGSQVTVSS,low polyreactivity
6,QVQLVESGGGLVQAGGSLRLSCAASGSTFAAYVMGWYRQAPGKEWELVAAITSGGSTYYADSVKGRFTISRDNAKNTVYLQMNSLKPEDTAVYYCAASWIRYRWRYGYWGQGTQVTVSS,high polyreactivity
7,QVQLVESGGGLVQAGGSLRLSCAASGSTFADYAMGWYRQAPGKERELVAAITGDGGNTYYADSVKGRFTISRDTAKNTVYLQMTSLKPEDTAVYYCAAEHESGAYYYWGLGTQVTVSS,high polyreactivity
8,QVQLVESGGGLVQAGGSLRLSCAASGSTFADYVMGWYRQAPGKERELVAAISRSGGSTYYADSVKGRFTISRDNAKNTVYLQMNSLKPEDTAVYYCATDITPAISVEYDYWGQGTQVTVSS,high polyreactivity
9,QVQLVESGGGLVQAGGSLRLSCAASGSTFAGNAIGWYRQAPGKERELVAAITSGTGTHYADSVKGRFTISRDNAKNSVYLQMNSLKPEDTAVYYCAAEVWSWAGIWGYEYWGQGTQVTVSS,low polyreactivity
10,QVQLVESGGGLVQAGGSLRLSCAASGSTFAGNAMGWYRHAPGKERELVAAIDSSTGSTYYADSVKGRFTISLDNAKNTVYLQMNSLKPEDTAVYYCNKTSFLVKLDFWGQGTQVTVSS,low polyreactivity
11,QVQLVESGGGLVQAGGSLRLSCAASGSTFAGNAMGWYRQAHGKERELVAALDSSTGSTYYAYSVKGRFTISRDNAKNTVYLQMNSVKPEDTAVYYWNKTSFLVKLDYWGQGTQVTVSS,low polyreactivity
12,QVQLVESGGGLVQAGGSLRLSCAASGSTFAGNTMGWSRQAPGKERELVAAITWNGGRTRYADSVKGRFTISRDNAKNTVYLQMNSLKPEDTAVYYCNAGPWYENMDYWGQGTQVTVSS,high polyreactivity
13,QVQLVESGGGLVQAGGSLRLSCAASGSTFAGYAMGWYRQAPGKERELVAAISKSGGSTYYADSVKGRFTISRDNAKNTVYLQMNSLKPEDTAVYYCAARGGLPDGQGYYYWGQGTQVTVSS,high polyreactivity
14,QVQLVESGGGLVQAGGSLRLSCAASGSTFAGYAMGWYRQAPGKERELVAAISRRGGSTYYADSVKGRFTISRDYAKNTVYLQMNRLKPEDTAVYYCNRDKYLRDPDYDYWGQGSQVTVSS,low polyreactivity
15,QVQLVESGGGLVQAGGSLRLSCAASGSTFAIYAMGWYRPAPGKERELVAAITLRTDSTYYADSVKGRFTISRDNAKNTVYLQMNSLKPEDTAVYYCNTVAYMRRFDKWGMNYWGQGTQVTVSS,low polyreactivity
16,QVQLVESGGGLVQAGGSLRLSCAASGSTFAIYAMGWYRQAPGKERELVAAISKSGGSTYYADSVKGRFTISRDNAKNTVYLQMNSLKPEDTAVYYCARRQYAFGPYGFYYWGQGTQVTVSS,high polyreactivity
17,QVQLVESGGGLVQAGGSLRLSCAASGSTFAIYAMGWYRQAPGKERELVASISGGSTNYADSVKGRFTISRDNAKNTVYLQMNSLKPEDTAVYYCAARGALHHWYSYDYWGQGTQVTVSS,low polyreactivity
18,QVQLVESGGGLVQAGGSLRLSCAASGSTFAKNAMGVYRQAPGKERELVAAISRGGNTYYADSVKGRFTISRDNAKITVYLLMNSLKPEDTAVYYCAARYLFRSLNMDYWGQVTQVTVSS,high polyreactivity
19,QVQLVESGGGLVQAGGSLRLSCAASGSTFAKYAMGWSRQAPGKEREFVAAITASGGRTFYADSVKGRFTISRDNAKNTVYLQMNSLKPEDSAVYYCAADVVPTWYGYNYDYWGQGTQVTVSS,high polyreactivity
20,QVQLVESGGGLVQAGGSLRLSCAASGSTFALNAMGWYRQAPGKERELVAAISGRGGSTYYADSVKGRFTISRDNAKNTVYLQMNSLKPEDTAVYYCAATSRVYVRGSYWKYGYWGQGTQVTVSS,high polyreactivity

row,Sequence,polyreactivity (PSR sort gate)
1,QVQLVESGGGLVQAGGSLRLSCAASGSTFAPNAMGWYRQAPGKEKEIVSGITWGDSTYYADSVKGRFTISRDNAKNTVYLQMNSLKPEDTAVYYCAVRWVWNPWGIQGDWAVDYDYWGQGTQVTVSS,low polyreactivity
2,QVQLVESGGGLVQAGGSLRLSCAASGSTFAPNAMGWYRQAPGKERELVAAISRGGSTYYADSVKGRFTISRDNAKNTVYLQMNSLKPEDTAVYYCAVYKFHYGYVWYPYDYWGQGTQVTVSS,high polyreactivity
3,QVQLVESGGGLVQAGGSLRLSCAASGSTFAPYAMGWYRQAPGKERELVAAITWRGGSTYYADSVKGRFTISRDNAKYTVYLQMNSLKPEDTAVYYCNADGYVPDYEYWGQGTQVTVSS,high polyreactivity
4,QVQLVESGGGLVQAGGSLRLSCAASGSTFAQDALGWYRQAPGKERELVATISASGGTTYYADSVKGRFSISRDNAKNPVYLQMNSLKPEDTAVYYCAKRRVWWPAHRSYLYASEFGYWGQGTQVTVSS,low polyreactivity
5,QVQLVESGGGLVQAGGSLRLSCAASGSTFAQNAMGWYRQAPGKEREFVAAITGTVGSTYYADSVKGRFTISRDNAKNTVYLQMNSLKPEDTAVHYCAVVHVFYAVSYFSFYTYDYWGQGTQVTVSS,low polyreactivity
6,QVQLVESGGGLVQAGGSLRLSCAASGSTFAQNTKGWYRQAPGKERELVATISDGGGSTYYADSVKGRFTISRDNAKNTVYLQMNSLKPEDTAVYYCNTDRFWPSDYWGQGTQVTVSS,low polyreactivity
7,QVQLVESGGGLVQAGGSLRLSCAASGSTFAQNTMGWYRQAPGKERELVATISDGGGSTYYADSVKGRFTISRDNAKNTVYLQMNSLKPDDTAVYYCNTDRFWPSDYWGQGTQVTVSS,low polyreactivity
8,QVQLVESGGGLVQAGGSLRLSCAASGSTFAQYVMGWYRQAPWKERELFAAISRGGGRTYYADSVKGRFTISRDNAKNTVYLQMNSLKPEDTAVYYCAAETLGVYDYESYNYYWGQGTQVTVSS,high polyreactivity
9,QVQLVESGGGLVQAGGSLRLSCAASGSTFARNAMGRNRQAPGKERELVARITWSGSGTFYADPVKGRFTISRDNAKNTVYLQMYCLKPQDTAVYYCASEGPSAGFDYWGQGTQVTVSS,high polyreactivity
10,QVQLVESGGGLVQAGGSLRLSCAASGSTFARNTMGWYRHAPGKERELVAVITRGDSTYYADSVKGRFTISRDNAKNTVYLQMNSLKPEDTAGYYCNAYFRYAYPSKMDYWVQGTQVTVSS,low polyreactivity
11,QVQLVESGGGLVQAGGSLRLSCAASGSTFARYAMGWYRQAPGKERELVASITTGGRTYYADSVKGRFTITRDNAKYTVYLQMNSLKPEDTPVYFCNVLRYRGYDYWGQGTQVTVSS,high polyreactivity
12,QVQLVESGGGLVQAGGSLRLSCAASGSTFARYAMGWYRQAPGKERELVAVITQSGSSTYYADSVKGRFTISRDNAKNTVYLQMNSLKPEDTAVYYCAAVGIDYTRYGRYWYSYDYWGQGTQVTVSS,high polyreactivity
13,QVQLVESGGGLVQAGGSLRLSCAASGSTFASNAMGWYRQAPGKERELVAAIDWTGASTYYADSVKGRFTISRDNAKNTVYLQMNSLKPEDTAVYYCNADEYWNSRTQGYNYWGQGTQVTVSS,low polyreactivity
14,QVQLVESGGGLVQAGGSLRLSCAASGSTFASNMGWYRQAPGKERELVAGIRSSGSTYYADSVKGRFTISRDNAKNTVYLQMNSLKPEDTAVYSCNKGDYRTYPYDYWGQGTQVTVSS,low polyreactivity
15,QVQLVESGGGLVQAGGSLRLSCAASGSTFASNTMGWYRQAPGKERELVAAITQSGGTTYYADSVKGRFTISRDNAKNTVYLQMNSLKPEDTAVYYCAADATFIIRYLSRSDYWGQGTQVTVSS,low polyreactivity
16,QVQLVESGGGLVQAGGSLRLSCAASGSTFASNVMGWYRQAPGKERELVAAISRSGGNTYYADSVKGRFTISRDNAKNSVYLQMNSLKPEDTAVYYCAKYPFTRISYDYWGQGTQVTVSS,high polyreactivity
17,QVQLVESGGGLVQAGGSLRLSCAASGSTFASYAMGWYRQAPGKEREFVAAISRSGGSTYYADSVKGRFTISRDNAKNTVYLQMTSLKPEDTAVYYCAARSPSADEYYYWGQGTQVTVSS,low polyreactivity
18,QVQLVESGGGLVQAGGSLRLSCAASGSTFATYAMGWYRQAPGKERELVAVISRSGGSTYYADSVKGRFTISRDNAKNTVYLQMNSLKPEDTAVYYCNVPITPGRVKYDYWGQGTQVTVSS,high polyreactivity
19,QVQLVESGGGLVQAGGSLRLSCAASGSTFAVNAMGWYRQAPGKERELVAAISGSGGRTYYADSVKGRFTISRDNAKNTVYLQMNSLKPEDTAVYYCATELRASYRSSGAYHYDYWGQGTQVTVSS,low polyreactivity
20,QVQLVESGGGLVQAGGSLRLSCAASGSTFAVNAMGWYRQAPGKERELVAVITGNGANTYYADSVKGRFTISRDNAKNTVYLQMNSLKPEDTAVYYCNARLFSQSHYYYWGQGTQVTVSS,high polyreactivity
